T1: human interleukin 1 receptor accessory protein, membrane-bound form on cells (human, UniProt Q9NPH3 21-570)
T1 sequence: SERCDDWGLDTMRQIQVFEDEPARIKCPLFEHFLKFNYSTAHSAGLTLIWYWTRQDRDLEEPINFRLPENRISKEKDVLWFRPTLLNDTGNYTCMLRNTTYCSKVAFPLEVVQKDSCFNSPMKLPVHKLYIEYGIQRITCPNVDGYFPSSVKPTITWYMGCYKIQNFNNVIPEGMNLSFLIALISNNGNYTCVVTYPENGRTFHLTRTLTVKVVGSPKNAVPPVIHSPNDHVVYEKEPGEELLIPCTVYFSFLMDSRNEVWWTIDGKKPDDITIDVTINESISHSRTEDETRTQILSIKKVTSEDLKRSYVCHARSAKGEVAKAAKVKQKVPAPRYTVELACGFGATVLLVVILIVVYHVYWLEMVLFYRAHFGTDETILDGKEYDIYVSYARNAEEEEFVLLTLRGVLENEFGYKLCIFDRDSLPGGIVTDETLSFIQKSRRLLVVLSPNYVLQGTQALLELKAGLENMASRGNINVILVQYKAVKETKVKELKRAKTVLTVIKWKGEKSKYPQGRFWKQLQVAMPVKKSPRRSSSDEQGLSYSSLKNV

T2: recombinant mouse IL1-RAP (mouse, UniProt Q61730 21-359, limits assumed)
T2 sequence (looked up): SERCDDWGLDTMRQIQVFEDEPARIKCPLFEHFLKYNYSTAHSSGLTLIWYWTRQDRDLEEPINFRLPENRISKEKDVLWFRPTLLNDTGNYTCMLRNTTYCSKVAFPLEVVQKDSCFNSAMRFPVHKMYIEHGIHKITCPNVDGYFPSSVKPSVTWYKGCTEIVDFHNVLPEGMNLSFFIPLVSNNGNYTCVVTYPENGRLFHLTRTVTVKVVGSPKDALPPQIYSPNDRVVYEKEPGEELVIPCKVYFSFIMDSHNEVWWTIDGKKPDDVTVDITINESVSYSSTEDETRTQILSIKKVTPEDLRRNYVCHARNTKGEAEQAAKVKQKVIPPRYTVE


How the values were obtained:
[1] = target: human interleukin 1 receptor accessory protein, membrane-bound form on cells (human) (UniProt Q9NPH3); assay: FACS on EOL-1 cells, FITC; antibody concentration not given
[2] = target: T1, human interleukin 1 receptor accessory …; assay: cell-based or functional assay
[3] = target: T2, recombinant mouse IL1-RAP; assay: FACS (GeoMean), bar series mIL1RAP

Binder | MFI [1] | % Inhibition at 10 ug/mL of IL-1β-induced NF-κB signaling, HEK-Blue IL-1β cells [2] | IC50 of inhibition of IL-1β-induced NF-κB signaling, HEK-Blue IL-1β cells [2] | binding result [3]
H54.9D7 HC1 / H54.9D7 LC1 (antibody, V domains shown) VH: QVQLVQSGAEVKKPGASVKVSCKASGYIFITYWMNWVRQAPGQGLEWMGQIFPASGTTYYAQKFQGRVTMTRDTSTSTVYMELSSLRSEDTAVYYCARTDFYRYDGGYALDYWGQGTLVTVSS VL: DIQMTQSPSSLSASVGDRVTITCRASQSVSTSGYSSMHWYQQKPGKAPKLLIYYASDLESGVPSRFSGSGSGTDFTLTISSLQPEDFATYYCHHSWGIPMYTFGQGTKLEIKR | 4.9 | – | – | –
h54.9D7 HC1 / h54.9D7 LC2 (antibody, V domains shown) VH: QVQLVQSGAEVKKPGASVKVSCKASGYIFITYWMNWVRQAPGQGLEWMGQIFPASGTTYYAQKFQGRVTMTRDTSTSTVYMELSSLRSEDTAVYYCARTDFYRYDGGYALDYWGQGTLVTVSS VL: DIQLTQSPSSLSASVGDRATITCRASQSVSTSGYSSMHWYQQKPGKAPKLLIYYASDLESGVPSRFSGSGSGTDFTLTISSVQPEDFATYYCHHSWGIPMYTFGQGTKLEIKR | 5.14 | – | – | –
h54.9D7 HC2 / h54.9D7 LC1 (antibody, V domains shown) VH: QVQLVQSGAEVKKPGASVKVSCKASGYIFITYWMNWVRQAPGQGLEWVGQIFPASGTTYYAQKFQGRVTMTVDTSTSTVYMELSSLRSEDTAVYYCARTDFYRYDGGYALDYWGQGTLVTVSS VL: DIQMTQSPSSLSASVGDRVTITCRASQSVSTSGYSSMHWYQQKPGKAPKLLIYYASDLESGVPSRFSGSGSGTDFTLTISSLQPEDFATYYCHHSWGIPMYTFGQGTKLEIKR | 5.25 | – | – | –
h54.9D7 HC2 / h54.9D7 LC2 (antibody, V domains shown) VH: QVQLVQSGAEVKKPGASVKVSCKASGYIFITYWMNWVRQAPGQGLEWVGQIFPASGTTYYAQKFQGRVTMTVDTSTSTVYMELSSLRSEDTAVYYCARTDFYRYDGGYALDYWGQGTLVTVSS VL: DIQLTQSPSSLSASVGDRATITCRASQSVSTSGYSSMHWYQQKPGKAPKLLIYYASDLESGVPSRFSGSGSGTDFTLTISSVQPEDFATYYCHHSWGIPMYTFGQGTKLEIKR | 5.69 | – | – | –
anti-IL1-RAP antibody clone 54.9E9 (antibody, V domains shown, Mouse monoclonal antibody) VH: QIQLVQSGPELKKPGETVKISCKASSYTFTDYSMHWVKQAPGKGLKWMGWINTETGEPRYADDFKGRFAFSLETSASTAYLQINNLKNEDTATYFCARFLLHFDYWGQGTILTVSS VL: QIVLTQSPAIMSASPGEKVTMTCSASSSVSYMHWYQQKTGTSPKRLIYDTSKLASGVPARFSGSGSGTSYSLTISSMEAEDAATYYCHQRSYYPLTFGAGAKLELK | – | 69.1% | 1.3 µg/mL | no binding (tested: not given)
anti-IL1-RAP antibody clone 46.1D2 (antibody, V domains shown, Mouse monoclonal antibody) VH: QVQLQQSGPELVKPGASVKISCKASGYGFSSSWMNWVKQRPGKGLEWIGRIYPGDGNTNYYGEFKGKATLTADKSSSTAYMQLNSLTSEDSAVYFCARNDGYPAWFTYWGQGTLVTVSA VL: DIQMTQTTSSLSASLGDRVTISCSASQGISNYLNWYQQKPDGSVKLLIYYTSTLHSGVPSRFSGSGSGTDYSLTISNLEPEDIATYYCQQYSYLPWTFGGGTKLEIK | – | 69.2% | 0.13 µg/mL | no binding (tested: not given)
anti-IL1-RAP antibody clone 54.15B5 (antibody, V domains shown, Mouse monoclonal antibody) VH: KWSWWSLGGGLAKPGGSLKLSCTASGFTFTSYVMSWVRQSPEKRLEWVAEISRGGSHTYYSDTVTGRFTISRDNANNALYLEMSSVRSADTAMYFCTRAYGNSEMDFWGQGTSVTVSS VL: QIVLTQSPAIMSASPGEKVTMTCSASSSISYIHWYRQKPGTSPKRWIYDTSNLASGVPARFSGSGSGTSYSLTIINMEAEDAATYYCHQRTYYPLTFGGGTRLELK | – | 58.1% | 0.29 µg/mL | no binding (tested: not given)
anti-IL1-RAP antibody clone 50.6C12 (antibody, V domains shown, Mouse monoclonal antibody) VH: EVQLQQSGPELVKPGDSVKMSCKASGYTFTDYYMDWVKQSHGKSLEWIGYIYPHNGGTTYNQKFKGKATLTVDKSSSTAYMELHSLTSEDSAVYYCARSPFNYKDPMDWWGQGTSVTVSS VL: DIQMTQSPASLSASVGETVTITCRASGNIHNYLAWYQQKQGKSPHLLVYNAETLADGVPSRFSGSGSGTQYSLKINSLQPEDFGTYYCQHFWSTPWTFGGGTKLEIK | – | 69% | 0.41 µg/mL | no binding (tested: not given)
anti-IL1-RAP antibody clone 50.3G7 (antibody, V domains shown, Mouse monoclonal antibody) VH: QIQLVQSGPELKKPGETVKISCKASGYTFTNYGMHWVKQSPGEGLKWMGWINTYTGEPTYADDFKGRFGFSLETSASSAYLQINDLKNEDMATYFCARYYGNFDYWGQGTTLTVSS VL: DIVLTQSPATLSVTPGDSVSLSCRASQSISNNLHWYQQKSHESPRLLIKYASQSISGIPSRFSGSGSGTDFTLSINSVETEDFGVYFCQQSHNWPHTFGGGTKLEIKR | – | 48% | 12.6 µg/mL | no binding (tested: not given)
anti-IL1-RAP antibody clone 54.8H8 (antibody, V domains shown, Mouse monoclonal antibody) VH: EVQLVESGGGLVKPGGSLKLSCAASGFSFSSYGMSWVRQSPEKRLEWVAEITSGGSHTYYPDTVTGRFTISRDNAKNTLYLEMSSLRSEDTAMYYCSRSYGNYVMDYWGQGTSVTVSS VL: QIVLTQSPAIMSASPGEKVTMTCSASSSVIYIYWFQQKPGSSPRLLIYDTSNLASGVPLRFSGSGSGTSYSLTISRMETEDVSTYYCQQWNSYPPTFGGGTKLEIK | – | 50.8% | 2.05 µg/mL | no binding (tested: not given)
anti-IL1-RAP antibody clone 42.1D3 (antibody, V domains shown, Mouse monoclonal antibody) VH: QIQLVQSGPELKKPGETVNISCKASGYTFTDFSMHWVKQAPGKGLQWMGWINTETGEPTYADDFEARFAFSLATSANTAYLKINNLKNEDTATYFCARFFLHFDYWGQGTTLTVSS VL: DIVLTQSPATLSVTPGDSVSLSCRASQSINNDLHWYQQKSHESPRLLIKYASQSISGIPSRFSGSGSGTDFTLRINSVETEDFRMYFCQQSNNWPLTFGAGTKLEVK | – | 59% | 7.99 µg/mL | no binding (tested: not given)
46.8G1 (antibody, V domains shown, also called anti-IL1-RAP antibody clone 46.8G1) VH: QVQLQQSGPELVKPGASVKISCTASGYAFSTSWMNWVKQRPGKGLEWIGRIYPGDGDSNYNGKFKGKATLTADKSSSTAYMQLSSLTSEDSAVYFCARRDYYGFFDVWGAGTTVTVSS VL: DIQMTQSPASLSVSVGETVTITCRASENIYSNLVWYQQKQGKSPQLLVYAATNLADGVPSRFSGSGSDTQYSLKINSLQSEDFGSYYCLHFWGPPYMYTFGGGTNLEMKR | – | – | – | no binding (tested: not given)
42.3G6 (antibody, V domains shown, also called anti-IL1-RAP antibody clone 42.3G6) VH: QIQLVQSGPELKKPGETVKISCKASGYTFTDYSMHWVKQAPEKGLKWMGWINTETGEPTYADDFKGRFAFSLETSASTAYLQINNLKNEDTATYFCARGSFPWFTYWGQGTLVTVSA VL: DIVMTQAAFSNPVTLGTSASISCRSSKSLLHSNGITYLYWYLQKPGQSPQLLIYQMSNLASGVPDRFSSSGSGTDFTLRISRVEAEDVGVYYCAQNLELPFTFGSGTKLEIK | – | – | – | no binding (tested: not given)

Source: patent US20190338038A1 (CELLERANT THERAPEUTICS, published 2019)
